Source: the DeepSol protein solubility set

Assay: soluble on expression in E. coli; label from the status in PepcDB or PDB records

Soluble on expression in E. coli, soluble:
GPGSMAALAALEKEVADLKRVRVFNETVRTGVERVLASLPSPENEKDTSTKVRILLLRSQATLLLPRVSREAEKDLNAALKLQPGSATTWVELSECLLRRNAFKEACDALDNALRVNPAHTEALCKYSQIQRNRCGGEGVTADQRKAYLEDAVAKARAAVGSNVDDADAWNTLALSLLSKVTLEGMTFDGVRKALAAMQQAERKCPEDPDVPYNKAVLESLLGHFGAAAMDYWRAHALDKDRLKGTRHLSEENAKVLLRAQSRMRTSSGIGKRDFQRICTRIEQAHKKYTQSTSAKVVGVLDIVTEPTMQPVTLLVSDGKGDFVLLLLHEVRPTCFKIGDVIAYPVTTPVETITHNIVACPGVEEEPLKLTLSHAYPNPKSILVNGQPLPSSAHVPLQMSSRLFA
GPGSMAVAAAAAAQTVAPRPPMQIGRADIAQMVASNPHVPTFSLPMNRQLEREFRTFRPVLIIAPLSTLPHWASEFQRFSRRHTAAAVSPCPGGVDAAERFTVYVLNGPRSERESRMGELLAHVERLTQQPPTPGGASGATPATPVVVIPHDMLTKPLRGALRQIRRVDWQVVAIDEAQRIKCARSFLFKKVCGLHSVSRRVLTGHTVADQHDGALPCSCAFRHRTRSSRVSCLSSWIAHCSPQVGRARWRIASCASSCAAVLIDFRCRSSCGVRGAS
GPGSMDPLCSPSAVSINGTPQTSVVNTSSTTSVVASPARPKLNRSVKFDPTIGGPLHSGDLSLDTSFVHGAGGDADAREHYGRRGRADEAATDSPLYSGDVLHEHEELLPFQLTREDVAAAFEFLDVNGSGLLTMGNLKHRLSAFYPHLTSKEYKFLVEDPSGSTGGGGTASSAARSAVAARHGGAADGCGGSTGGPTTSSLAQAASSARPSNLSFDDGGDAVHANGALSGEGVASGVGGSNATSARAGLDVDQLWDLINSFQQLQRTFGAAQAGQAEGQNAQNTRSAFNSSFDAYLVGTHGTQGIRSADIGFDAVGEAFRIYDPHNTHYVEEEVLSCIMARVGFGELTEEELAVLVSTADFDGDGRISLEDFRRLVSMKGRFEK
GPGSMDSSAGALPATAHSSSNGAASIENVFAGLAWVRDLTDASLAAERVHNAFMQVVFSFVPEYDQDDDDDSATHRFVTAAERQKEAERDRRLREEARRELENLRNEPLSDAGDSGQRSDDEEDQRSEEANLADFETNEFMHWIEAGASDRFAAPRHEIDEKGLRDDPRVQVGADGAWQDYGVRSECNMSGATQGGARGAASAPRW
GPGSMDYPKKNQAAPAEGQTVRLTITSRNAKAVESVTSQLLTRARDEKVTIHGPVRLPTRTLKITTRKTPCGNGTNTWDTFELKIYKRIIDLHAPTEQVKKITSFTMESGVDVSITILDR
GPGSMGRQKSRNLWNDGEGTKSVCRPQQVTVAKGWRVTPDLLPAKPLAPRRRKYAPIRPNNRDAVAIPLGGQSYNPLDEEHQEALAKAVRQLSKKKLKDEKFVKMMTMGRDKKYTGNLSADKTWEEEVQETEPATAKTPKKKRTKTAPASTGASSSAPSSAPSPVTHNGNKAKHEKVAAAPAAVAKNGKTAKKQKKKTKKATAEEAKRAMTHRRHPKRGVVAKETDELDVLLAAHKATACKREVARQKRRAAKKANLAIKHYGRHYHTPLVLDVTPSDKLVGSLRHLSGGYVHPALERMKSLEERNLVPARMRHTYNKRKVLKPKGEVRVKREEFGVMPMTGF

Soluble on expression in E. coli, not soluble:
GNIATTPGDVVYRNRMMELIQYKPATDTVHEIPIVLFPPWINKFYILDLKAQNSFIKWVTEQGFTIFVVSWINPDASYADVGMEDYIQDGFLTAIDEVKKICKVKQVNAVGYCIAGTTLSLTLSLMKQTGDKSVKSATFFTALTDFSDQGEFTPFLQDDFIDGIEEEVTREGVLRSWIMARTFSYLRSNDLIYKPAIQSYMLGETPPAFDLLYWNGDGANLPAKMAVQYLRGLCQRNEFAGEGFDLMGHTLHVRDVDVPVMAITCETDHIAAWKDCYRGVQKMGSRSKTFVVSESGHIAGIVNPPSKKKYGHYTNPDLKDD
GPGSMDLLGSQIAAALEEGSRKRKRDVEEGCSALVSHVNSTLDVITTDVRNTLTEQHCEMEERVNRLMKMAGDFATAVDTWQKKASDSVCAVESQQQLLWELLQDVEKRAQERKKEMLKRQEQRMEELRTMLLERIQKAEASMQL
GPGSMEETVEHHFVEPNNISHMERHTAYATGPLDIDGGSSDSNCVLTAPSMTVTTSADGSSFVQLTEEDMQLMPEEQSISGGSYDETRTPESVNVVNS
GPGSMEGPFLSRSIQYVERWLAEIVATKGTRAAATGSSEKAVAQKRGKATATAAAETGATSMSKCRFVVGRVNSVRPHPESQKLYIEEIDLGEEGGKCRTILSGLQEYVKQEDFLNRLVLVIANLEPRKIGGIPSEGMVLCASCNDEGSRSVVLLDVPEGTPVGERILFEGHEGPYEPVLKKKLAKHFEEVAAELRTNDKGEVVWRDMPFRTSCGIITASIPNGSVS
GPGSMFHRAFVSSSDLTGCTIALSSVCTQKRYWAKPKKRPKVGQGFHEKAQKWREEYLLDRHRALADSLRAYVEFSTSKRVEPWDARFKPFDRIEKDGVYVLMRYMMEEKLQLCNYHHRPVKRLFCNIGLMGPQITTKARWKPYRFATNPAGTSKAERMYQRDKTVYTHGHND
GPGSMFILADQLALPLPRSPLFFDVFDFSLEHTAMSQEAGCDTKGGGSTVTSVTAGTSGKHEETPVVTEDSSFVYACRLCRRILFTHEEIMPHSADSSSKGPKAFGRRGAPKQQSDQQNAGVCTSYFLNPDVSIWVAAESREAHCESGGTSVLPDTVYCPNNSCSAKIGTQSWVGSQCSCGVWVTPAFKIHGRAVDKLQSQ
GPGSMFSLVRGLYSSIFADDTRKVLIVGLESSGKTTLSEQLKHMYATESSKNGANSSTTEENSGDATASEVNYNFPTPAPVESLRKKIRPTTGLNRSSVTHVTTPPQHETPNVSLTPLTTPLILWDIGGSLRPLWGNFFGTCHGVIFVVDSTLGEATSNGCSEGGRKTSPDQVGTSEDDESDVGAQPNSPIGDVREGERSQFLRKLYAKDALILRQMFSHPLLAGAPLLIVSNKVDAANHHTLVEIQDALRLVDVALMDEFYADDCVVGEPVYGELHRNGEGDYEGPPDRSAYDKLSNEKSFGGVATPPPGSSGIGNRVMRLVEMSALHGTGVVDGMNWLVAQMRDSGRQPLPDDGK
GPGSMGADIVEVDVWRTSDGALILMHDETLDRTTNGTGRVCDHTLAEVRALRLKDGLGNMTEFTVPTVEEVLLLAKDRAILNLDKADVYLDELYPLLVKTGMVEQTILKSEIPFDELCKRYSADLLNRVIFMPILNITDTTTYKNIDRAFAANHALYEVNFEKENADVLQYIRKLAKNSGAALWINTIWPTTCGGYSDDHALRDKDANWGYVVDRIGAGIIQTDRPAMLLAYLQERGCR
GPGSMGMSVTMINAIPLLRSMHANCVCPVCFEVFKKPVCFPCGHILCRACATRCIAARPRCPLCNQAVPNMRHCAPLPQLSLLCVLTREVGLRASGLQLRSSVQNAATPLSHRNHDSSMKRHRGATADDAVEETQGEHQAPRPRRSSLSPPPEQRPFLSLREPRASHRVANAVAATEGSTANHAQHTSLPELLRAAAGETQRLQSESPPPPLLMVGEGDDVLLGEAPHRSIIAQVTTSLPSAIAHRVGDSGALGRGQDQPPTPTPPPALSPSPAPFSTPLQLMCNHITDHADQLDSTPLLSPLPFTAFAVVEAASVTAAASVTHRSAQASSRVLATEHASNAKKASSWSLWRRGRGVIHCTLTPPAARLLARQSVVADGAGRGKTEAASKTASSSSAASADTAASLWHRFGCCALCGLDVVQRAAVRQRLQHLLRSPTAHCDPAELAMQTEESLSLLLGPLWGVCCEVQEHSTNIAQSQVSTCEGEYTTTELDAVQGSYCCPCRGEVTAHHVTGVAHHNCLAWAGLLDFFTNTSLEDLPAAAAAGVYFVPSMTASLHMTVPLQDPLGVLAARTSGRVARWQLLAATLCHMHQRDADEESELGKRVQTSGESGAEGPLMTPRCALCEDGAPLLASNSPSFPFGAGLRVCEGTERGESSCGQQYHYPCALLAGASACIIFGLEDECNVLDASASTPVRDRSAGGKRRGVERPVEVWCGVCHERHEVCRRRV
